According to publication PMC12808100 (Nature Communications, 2025):
*: point of attachment. Biotin = O=C1N[C@H]2[C@H](CS[C@H]2CCCCC(=O)*)N1; TTDS = Trioxatridecan-succinamic acid linker

T1: EPS15 (human (endogenous in Jurkat), UniProt P42566 1-896)
T1 construct: EPS15, EH protein with three EH domains, endogenous in Jurkat E6.1 extract, detected by western blot with an EPS15 antibody; also called endogenous EPS15; EH protein with three EH domains; source: endogenous, total Jurkat extract
T1 sequence (looked up): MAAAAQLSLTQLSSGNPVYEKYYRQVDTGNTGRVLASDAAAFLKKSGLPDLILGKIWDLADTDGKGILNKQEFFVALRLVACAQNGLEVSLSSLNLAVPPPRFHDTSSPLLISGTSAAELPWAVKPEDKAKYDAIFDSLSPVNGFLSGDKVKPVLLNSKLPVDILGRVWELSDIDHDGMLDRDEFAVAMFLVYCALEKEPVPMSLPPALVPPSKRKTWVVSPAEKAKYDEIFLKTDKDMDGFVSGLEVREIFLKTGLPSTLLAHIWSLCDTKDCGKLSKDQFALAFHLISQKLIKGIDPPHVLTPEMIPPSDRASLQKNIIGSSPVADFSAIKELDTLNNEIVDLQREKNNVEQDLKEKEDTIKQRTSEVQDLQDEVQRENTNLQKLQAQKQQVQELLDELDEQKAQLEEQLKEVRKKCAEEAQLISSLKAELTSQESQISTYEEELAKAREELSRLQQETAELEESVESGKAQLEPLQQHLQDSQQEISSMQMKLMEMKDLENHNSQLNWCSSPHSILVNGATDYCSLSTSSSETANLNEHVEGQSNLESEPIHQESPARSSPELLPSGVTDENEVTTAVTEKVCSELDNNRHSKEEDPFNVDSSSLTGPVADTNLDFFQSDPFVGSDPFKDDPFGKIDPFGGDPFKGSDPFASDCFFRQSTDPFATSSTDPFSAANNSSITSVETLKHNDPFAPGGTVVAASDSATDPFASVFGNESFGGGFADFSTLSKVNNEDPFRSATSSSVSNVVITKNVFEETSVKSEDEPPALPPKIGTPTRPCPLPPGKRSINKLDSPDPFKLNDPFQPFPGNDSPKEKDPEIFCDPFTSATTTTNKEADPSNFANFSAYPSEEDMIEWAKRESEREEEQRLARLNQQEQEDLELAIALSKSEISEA


Biological target: T1, EPS15
Experiment: native holdup (nHU) titration with western blot; biotinylated peptide bait on streptavidin resin, bait-saturated and control (biotin) resin mixed at various proportions; total Jurkat extract as analyte; 4 °C, 2 h; endogenous POLE and EPS15 left in the supernatant quantified by western blot; apparent dissociation constants
Settings: one partner purified

Binder | Kd [µM]
{Biotin-TTDS}-GPAAARRNPFARLDNRPR-NH2 (Protein downstream neighbor of Son (DONSON), residues 71-88; also called DONSON_71-88; DONSON_718-88 (as printed in the sheet); source: synthetic peptide (ABI 443 A synthesizer, Fmoc strategy)) [NPF motif peptide of DONSON (residues 71-88)] | > 60
RSSPNPFITGLTRTNPFSDRTAAPGNPFRAKS (HELM PEPTIDE1{[O=C1N[C@H]2[C@H](CS[C@H]2CCCCC(=O)[*:2])N1].[O=C(CCCCCN[*:1])[*:2]].R.S.S.P.N.P.F.I.T.G.L.T.R.T.N.P.F.S.D.R.T.A.A.P.G.N.P.F.R.A.K.S.[am]}$$$$V2.0; SMILES CC[C@H](C)[C@H](NC(=O)[C@H](Cc1ccccc1)NC(=O)[C@@H]1CCCN1C(=O)[C@H](CC(N)=O)NC(=O)[C@@H]1CCCN1C(=O)[C@H](CO)NC(=O)[C@H](CO)NC(=O)[C@H](CCCNC(=N)N)NC(=O)CCCCCNC(=O)CCCC[C@@H]1SC[C@@H]2NC(=O)N[C@@H]21)C(=O)N[C@H](C(=O)NCC(=O)N[C@@H](CC(C)C)C(=O)N[C@H](C(=O)N[C@@H](CCCNC(=N)N)C(=O)N[C@H](C(=O)N[C@@H](CC(N)=O)C(=O)N1CCC[C@H]1C(=O)N[C@@H](Cc1ccccc1)C(=O)N[C@@H](CO)C(=O)N[C@@H](CC(=O)O)C(=O)N[C@@H](CCCNC(=N)N)C(=O)N[C@H](C(=O)N[C@@H](C)C(=O)N[C@@H](C)C(=O)N1CCC[C@H]1C(=O)NCC(=O)N[C@@H](CC(N)=O)C(=O)N1CCC[C@H]1C(=O)N[C@@H](Cc1ccccc1)C(=O)N[C@@H](CCCNC(=N)N)C(=O)N[C@@H](C)C(=O)N[C@@H](CCCCN)C(=O)N[C@@H](CO)C(N)=O)[C@@H](C)O)[C@@H](C)O)[C@@H](C)O)[C@@H](C)O, SYNJ1, residues 1390-1421, contains three NPF motifs; also called SYNJ1_1390-1421; triple motif of SYNJ1; source: synthetic peptide; bought: Synpeptide) [NPF motif peptide of SYNJ1 (residues 1390-1421)] | 1
GPAATRTNPFARLDNRPR (HELM PEPTIDE1{[O=C1N[C@H]2[C@H](CS[C@H]2CCCCC(=O)[*:2])N1].[O=C(CCCCCN[*:1])[*:2]].G.P.A.A.T.R.T.N.P.F.A.R.L.D.N.R.P.R.[am]}$$$$V2.0; SMILES CC(C)C[C@H](NC(=O)[C@H](CCCNC(=N)N)NC(=O)[C@H](C)NC(=O)[C@H](Cc1ccccc1)NC(=O)[C@@H]1CCCN1C(=O)[C@H](CC(N)=O)NC(=O)[C@@H](NC(=O)[C@H](CCCNC(=N)N)NC(=O)[C@@H](NC(=O)[C@H](C)NC(=O)[C@H](C)NC(=O)[C@@H]1CCCN1C(=O)CNC(=O)CCCCCNC(=O)CCCC[C@@H]1SC[C@@H]2NC(=O)N[C@@H]21)[C@@H](C)O)[C@@H](C)O)C(=O)N[C@@H](CC(=O)O)C(=O)N[C@@H](CC(N)=O)C(=O)N[C@@H](CCCNC(=N)N)C(=O)N1CCC[C@H]1C(=O)N[C@@H](CCCNC(=N)N)C(N)=O) [DONSON-SYNJ1 chimera peptide, N-terminal flank replaced] | > 30
GPAAARRNPFSDRDNRPR (HELM PEPTIDE1{[O=C1N[C@H]2[C@H](CS[C@H]2CCCCC(=O)[*:2])N1].[O=C(CCCCCN[*:1])[*:2]].G.P.A.A.A.R.R.N.P.F.S.D.R.D.N.R.P.R.[am]}$$$$V2.0; SMILES C[C@H](NC(=O)[C@H](C)NC(=O)[C@@H]1CCCN1C(=O)CNC(=O)CCCCCNC(=O)CCCC[C@@H]1SC[C@@H]2NC(=O)N[C@@H]21)C(=O)N[C@@H](C)C(=O)N[C@@H](CCCNC(=N)N)C(=O)N[C@@H](CCCNC(=N)N)C(=O)N[C@@H](CC(N)=O)C(=O)N1CCC[C@H]1C(=O)N[C@@H](Cc1ccccc1)C(=O)N[C@@H](CO)C(=O)N[C@@H](CC(=O)O)C(=O)N[C@@H](CCCNC(=N)N)C(=O)N[C@@H](CC(=O)O)C(=O)N[C@@H](CC(N)=O)C(=O)N[C@@H](CCCNC(=N)N)C(=O)N1CCC[C@H]1C(=O)N[C@@H](CCCNC(=N)N)C(N)=O) [DONSON-SYNJ1 chimera peptide, C-terminal flank replaced] | > 20
GPAATRTNPFSDRDNRPR (HELM PEPTIDE1{[O=C1N[C@H]2[C@H](CS[C@H]2CCCCC(=O)[*:2])N1].[O=C(CCCCCN[*:1])[*:2]].G.P.A.A.T.R.T.N.P.F.S.D.R.D.N.R.P.R.[am]}$$$$V2.0; SMILES C[C@H](NC(=O)[C@H](C)NC(=O)[C@@H]1CCCN1C(=O)CNC(=O)CCCCCNC(=O)CCCC[C@@H]1SC[C@@H]2NC(=O)N[C@@H]21)C(=O)N[C@H](C(=O)N[C@@H](CCCNC(=N)N)C(=O)N[C@H](C(=O)N[C@@H](CC(N)=O)C(=O)N1CCC[C@H]1C(=O)N[C@@H](Cc1ccccc1)C(=O)N[C@@H](CO)C(=O)N[C@@H](CC(=O)O)C(=O)N[C@@H](CCCNC(=N)N)C(=O)N[C@@H](CC(=O)O)C(=O)N[C@@H](CC(N)=O)C(=O)N[C@@H](CCCNC(=N)N)C(=O)N1CCC[C@H]1C(=O)N[C@@H](CCCNC(=N)N)C(N)=O)[C@@H](C)O)[C@@H](C)O) [DONSON-SYNJ1 chimera peptide, both flanks replaced] | > 200

Biological target: T2, His6-AviTag-MBP-TEV-POLE2 (human, UniProt P56282 1-527, biotin on the AviTag (BirA co-expressed, biotin in the medium))
T2 construct: POLE2, residues 1-527; a TEV site lies between MBP and POLE2; also called His6-avi-MBP-tagged POLE2; avi-His6-MBP-POLE2; source: E. coli BL21(DE3), co-expressed with BirA, purified (HisTrap, MBPtrap, Q HP); not shown: His6, N-terminal, kept; AviTag, N-terminal, kept; MBP, N-terminal, kept
Experiment: native holdup (nHU) titration with dot blot; purified His6-avi-MBP-tagged POLE2 as bait on resin; extracts of HEK293T cells transfected with HA-tagged full length proteins; 4 °C, 2 h; anti-HA dot blot; apparent
Settings: one partner purified

T2 sequence (P56282 whole entry, the tested form may be a part): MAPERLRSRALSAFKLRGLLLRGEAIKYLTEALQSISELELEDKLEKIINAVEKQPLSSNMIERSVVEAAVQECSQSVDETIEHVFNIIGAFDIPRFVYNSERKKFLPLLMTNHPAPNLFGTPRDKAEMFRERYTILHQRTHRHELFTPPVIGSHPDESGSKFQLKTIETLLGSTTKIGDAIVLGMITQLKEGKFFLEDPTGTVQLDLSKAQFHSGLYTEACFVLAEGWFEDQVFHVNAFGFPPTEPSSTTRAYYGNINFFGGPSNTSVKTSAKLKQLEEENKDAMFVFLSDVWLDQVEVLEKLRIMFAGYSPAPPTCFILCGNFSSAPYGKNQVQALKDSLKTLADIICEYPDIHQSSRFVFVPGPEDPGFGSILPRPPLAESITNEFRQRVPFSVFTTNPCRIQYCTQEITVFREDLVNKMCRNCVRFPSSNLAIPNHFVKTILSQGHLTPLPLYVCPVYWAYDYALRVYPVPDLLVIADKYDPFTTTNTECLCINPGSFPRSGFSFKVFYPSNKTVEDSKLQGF

Binder | fold weaker affinity than the wild type [fold]
HA-WDHD1, full length, NPF motif mutated to KAF (natural protein, human, UniProt O75717 1-1129, looked up, WDHD1, residues 1-1129; also called WDHD1 mutant; source: HEK293T, transfected, in cell extract; not shown: HA, N-terminal, kept) MPATRKPMRYGHTEGHTEVCFDDSGSFIVTCGSDGDVRIWEDLDDDDPKFINVGEKAYSCALKSGKLVTAVSNNTIQVHTFPEGVPDGILTRFTTNANHVVFNGDGTKIAAGSSDFLVKIVDVMDSSQQKTFRGHDAPVLSLSFDPKDIFLASASCDGSVRVWQISDQTCAISWPLLQKCNDVINAKSICRLAWQPKSGKLLAIPVEKSVKLYRRESWSHQFDLSDNFISQTLNIVTWSPCGQYLAAGSINGLIIVWNVETKDCMERVKHEKGYAICGLAWHPTCGRISYTDAEGNLGLLENVCDPSGKTSSSKVSSRVEKDYNDLFDGDDMSNAGDFLNDNAVEIPSFSKGIINDDEDDEDLMMASGRPRQRSHILEDDENSVDISMLKTGSSLLKEEEEDGQEGSIHNLPLVTSQRPFYDGPMPTPRQKPFQSGSTPLHLTHRFMVWNSIGIIRCYNDEQDNAIDVEFHDTSIHHATHLSNTLNYTIADLSHEAILLACESTDELASKLHCLHFSSWDSSKEWIIDLPQNEDIEAICLGQGWAAAATSALLLRLFTIGGVQKEVFSLAGPVVSMAGHGEQLFIVYHRGTGFDGDQCLGVQLLELGKKKKQILHGDPLPLTRKSYLAWIGFSAEGTPCYVDSEGIVRMLNRGLGNTWTPICNTREHCKGKSDHYWVVGIHENPQQLRCIPCKGSRFPPTLPRPAVAILSFKLPYCQIATEKGQMEEQFWRSVIFHNHLDYLAKNGYEYEESTKNQATKEQQELLMKMLALSCKLEREFRCVELADLMTQNAVNLAIKYASRSRKLILAQKLSELAVEKAAELTATQVEEEEEEEDFRKKLNAGYSNTATEWSQPRFRNQVEEDAEDSGEADDEEKPEIHKPGQNSFSKSTNSSDVSAKSGAVTFSSQGRVKAFKVSASSKEPAMSMNSARSTNILDNMGKSSKKSTALSRTTNNEKSPIIKPLIPKPKPKQASAASYFQKRNSQTNKTEEVKEENLKNVLSETPAICPPQNTENQRPKTGFQMWLEENRSNILSDNPDFSDEADIIKEGMIRFRVLSTEERKVWANKAKGETASEGTEAKKRKRVVDESDETENQEEKAKENLNLSKKQKPLDFSTNQKLSAFAFKQE | 1000
